Test results reported in publication PMC9253114, “Structures and gating mechanisms of human bestrophin anion channels” (Nature Communications, 2022).

B1: wild-type human bestrophin-1 (natural protein)
chain: MTITYTSQVANARLGSFSRLLLCWRGSIYKLLYGEFLIFLLCYYIIRFIYRLALTEEQQLMFEKLTLYCDSYIQLIPISFVLGFYVTLVVTRWWNQYENLPWPDRLMSLVSGFVEGKDEQGRLLRRTLIRYANLGNVLILRSVSTAVYKRFPSAQHLVQAGFMTPAEHKQLEKLSLPHNMFWVPWVWFANLSMKAWLGGRIRDPILLQSLLNEMNTLRTQCGHLYAYDWISIPLVYTQVVTVAVYSFFLTCLVGRQFLNPAKAYPGHELDLVVPVFTFLQFFFYVGWLKVAEQLINPFGEDDDDFETNWIVDRNLQVSLLAVDEMHQDLPRMEPDMYWNKPEPQPPYTAASAQFRRASFMGSTFNISLNKEEMEFQPNQEDEEDAHAGIIGRFLGLQSHDHHPPRANSRTKLLWPKRESLLHEGLPKNHKAAKQNVRGQEDNKAWKLKAVDAFKSAPLYQRPGYYSAPQTPLSPTPMFFPLEPSAPSKLHSVTGIDTKDKSLKTVSSGAKKSFELLSESDGALMEHPEVSQVRRKTVEFNLTDMPEIPENHLKEPLEQSPTNIHTTLKDHMDPYWALENRDEAHS
notes: human bestrophin-1 (hBest1), wild type; also called hBest1; WT hBest1; source: HEK293-F cells, Bacmam system, purified (GDN extraction, Ni-NTA, TEV cleavage, gel filtration)
B2: wild-type human bestrophin-2 (natural protein, UniProt Q8NFU1 1-509, looked up)
chain: MTVTYTARVANARFGGFSQLLLLWRGSIYKLLWRELLCFLGFYMALSAAYRFVLTEGQKRYFEKLVIYCDQYASLIPVSFVLGFYVTLVVNRWWSQYLCMPLPDALMCVVAGTVHGRDDRGRLYRRTLMRYAGLSAVLILRSVSTAVFKRFPTIDHVVEAGFMTREERKKFENLNSSYNKYWVPCVWFSNLAAQARREGRIRDNSALKLLLEELNVFRGKCGMLFHYDWISVPLVYTQVVTIALYSYFLACLIGRQFLDPAQGYKDHDLDLCVPIFTLLQFFFYAGWLKVAEQLINPFGEDDDDFETNFLIDRNFQVSMLAVDEMYDDLAVLEKDLYWDAAEARAPYTAATVFQLRQPSFQGSTFDITLAKEDMQFQRLDGLDGPMGEAPGDFLQRLLPAGAGMVAGGPLGRRLSFLLRKNSCVSEASTGASCSCAVVPEGAAPECSCGDPLLDPGLPEPEAPPPAGPEPLTLIPGPVEPFSIVTMPGPRGPAPPWLPSPIGEEEENLA
notes: human bestrophin-2 (hBest2), wild type; also called hBest2; WT hBest2; source: HEK293-F cells, Bacmam system, purified (GDN extraction, Ni-NTA, TEV cleavage, gel filtration)
B3: hBest1_(1–345) (domain or fragment, human, UniProt O76090 1-345, looked up)
chain: MTITYTSQVANARLGSFSRLLLCWRGSIYKLLYGEFLIFLLCYYIIRFIYRLALTEEQQLMFEKLTLYCDSYIQLIPISFVLGFYVTLVVTRWWNQYENLPWPDRLMSLVSGFVEGKDEQGRLLRRTLIRYANLGNVLILRSVSTAVYKRFPSAQHLVQAGFMTPAEHKQLEKLSLPHNMFWVPWVWFANLSMKAWLGGRIRDPILLQSLLNEMNTLRTQCGHLYAYDWISIPLVYTQVVTVAVYSFFLTCLVGRQFLNPAKAYPGHELDLVVPVFTFLQFFFYVGWLKVAEQLINPFGEDDDDFETNWIVDRNLQVSLLAVDEMHQDLPRMEPDMYWNKPEPQP
notes: also called hBEST1 345; AS truncated hBest1; source: HEK293-F cells, Bacmam system, purified (GDN extraction, Ni-NTA, TEV cleavage, gel filtration)
B4: bBest2_(1–345) (domain or fragment, bovine, UniProt E1BF86 1-345, looked up)
chain: MTVTYTARVAKARFGGFSKLLLLWRGSIYKLLWRELLCFLGLFMALSAAYRFVLTEEQKRYFEKLVLYCDRYASLIPVSFVLGFYVTLVVHRWWNQYLSMPLTDALMCVVVGTVHGHDERGRLYRRTLMRYAGLSGVLILRSVSTAVFKRFPTIDHVVEAGFMTREERKKFENLNSSYNKYWVPCVWFCNLAAQARREGRIRDNGAFKLLLEELNVFRSKCGMLFHYDWISVPLVYTQVVTIAVYSYFLACLIGRQFLDPAQGYKDHDLDLCVPIFTLLQFFFYAGWLKVAEQLINPFGEDDDDFETNFLIDRCFQVSMLAVDEMYDDLAMLEKDLYWDAAEARA
notes: PDB 6VX7 is the cited earlier bBest2 structure, another construct; also called bBEST2 345; AS truncated bovine Best2; source: HEK293-F cells, Bacmam system, purified (GDN extraction, Ni-NTA, TEV cleavage, gel filtration)

What was measured:
[1] = molecular target: the molecule itself; experiment: cryo-EM structure; single-particle cryo-EM of purified channel in GDN (200 mM NaCl, 40 mM HEPES pH 7.8, 0.005% GDN); without Ca2+ (EGTA) or after a 30 s spike of 1 uM or 5 mM Ca2+; C5 symmetry refinement
[2] = molecular target: the molecule itself; experiment: cryo-EM structure; single-particle cryo-EM of purified truncated channel (residues 1-345) in GDN, in the presence of 5 mM Ca2+; C5 symmetry refinement

Protein	stoichiometry N [1]	binding result [2]
B1	5	–
B2	5	–
B3	–	binds
B4	–	binds
